This test deals with T1, untagged full-length human 14-3-3ζ (human), P63104.
T1 chain: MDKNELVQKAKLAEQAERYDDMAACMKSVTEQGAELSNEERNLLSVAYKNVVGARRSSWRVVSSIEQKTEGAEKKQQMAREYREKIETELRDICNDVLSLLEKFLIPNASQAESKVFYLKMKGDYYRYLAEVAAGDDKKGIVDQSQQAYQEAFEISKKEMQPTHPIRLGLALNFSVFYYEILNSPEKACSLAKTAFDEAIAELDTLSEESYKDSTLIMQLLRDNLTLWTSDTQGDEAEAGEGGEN
Description: SEC. Conditions: remark: other sources report otherwise.

As usually defined, the stoichiometry N is a count of units in the complex or per binding partner.

B1: untagged full-length human 14-3-3ζ, P63104 1-245 (natural protein)
chain: T1 chain
B1 came in with a stoichiometry N of 2.

The values are drawn from paper PMC7863765.
